From US20160137713A1 (HANALL BIOPHARMA, published 2016)

Experiments:
[1] = target: T1, human FcRn on HEK293 cells (human, UniProt P55899 24-365; P61769 21-119); test: FACS on hFcRn-overexpressing HEK293 cells at pH 7.4, Alexa488 anti-human goat antibody; MFI relative to hIgG1
T1 construct: whole, on cells; also called hFcRn
Experimental: (§1) In stable HEK293 cells expressing human FcRn, the degrees of binding of antibody to FcRn at various pHs were analyzed using a FACS system. Specifically, 100,000 stable HEK293 cells were washed with PBS and centrifuged in a table top microcentrifuge at 4500 rpm for 5 minutes to obtain pellets. 1 μg of antibody was added to 100 μl of pH 6.0 or pH 7.4PBS/10 mM EDTA. The cell pellets were resuspended in 100 μl of the antibody solution and incubated on ice for 60 minutes. The cells were washed once with 150 μl of buffer having pH difference, and then pellets were obtained therefrom. Alexa488-labeled anti-human antibody goat antibody (1 mg/ml) was diluted at 1:20 in buffer having pH difference, and the pellets were resuspended in 100 μl of the buffer, and then cultured on ice for 60 minutes. The cells were washed once with 150 μl of buffer having pH difference, and pellets were obtained therefrom and resuspended in buffer having pH difference. The suspension was transferred into a tube for FACS analysis. These cells were analyzed by FACS using BD FACSDiva™ v6.1.3 software (BD Bioscience). The results of the analysis were expressed as Mean Fluorescence Intensity (MFI) (see FIG. 2).

rat FcRn on Rat-2 cells = target: T2, rat FcRn on Rat-2 cells (rat, UniProt P13599 23-366; P07151 21-119); test: FACS on rat FcRn-expressing Rat-2 cells at pH 6.0 and pH 7.4, FITC anti-human IgG goat antibody; MFI relative to hIgG
T2 construct: whole, on cells
T2 sequence (looked up): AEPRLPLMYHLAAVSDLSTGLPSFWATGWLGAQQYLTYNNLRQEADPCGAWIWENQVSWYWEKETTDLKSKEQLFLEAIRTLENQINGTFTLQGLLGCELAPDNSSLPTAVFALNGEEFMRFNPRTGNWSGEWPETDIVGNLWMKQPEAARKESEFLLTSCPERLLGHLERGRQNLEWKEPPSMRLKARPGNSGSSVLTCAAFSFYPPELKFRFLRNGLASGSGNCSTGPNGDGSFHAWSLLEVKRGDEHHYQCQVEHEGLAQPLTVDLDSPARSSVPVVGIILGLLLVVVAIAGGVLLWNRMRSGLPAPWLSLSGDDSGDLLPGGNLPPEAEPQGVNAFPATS
T2 sequence (b2m, looked up): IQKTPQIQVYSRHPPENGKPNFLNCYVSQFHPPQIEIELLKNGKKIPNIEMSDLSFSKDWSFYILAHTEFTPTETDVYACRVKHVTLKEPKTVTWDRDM
Experimental: Rat-2 (KCTC #AC28203), rat fibroblasts stably expressing rat FcRn, were cultured in 10% FBS DMEM medium, and then detached from the culture plate by trypsin treatment. The cells were washed three times with cold binding buffer (PBS pH 6.0, 10 mM EDTA), and then diluted in binding buffer at a concentration of 10⁵ cells/ml. 100 μl of the cell dilution was dispensed into each 1.5-ml tube in such a manner that each tube contained 10⁴ cells, and 1 μl of HL161 antibody (1 mg/ml) was added to the dispensed cells. Next, the cells were incubated on ice. As control antibodies, 1 μl of each of mouse 1G3 antibody and human IgG antibody (Abcam, cat#. 409120), which bind to rat FcRn, was used. The 1G3 antibody was produced and purified from mouse hybridoma cells (ATCC CRL2434). The cells were recovered by centrifugation at 4° C. and 4000 rpm for 5 minutes, after which the cells were washed once with binding buffer and resuspended in 100 μl of binding buffer. As FITC-conjugated secondary antibody, 1 μl of anti-human IgG goat antibody (Invitrogen, cat#. A11013) was added to the cells. In the case of the experiment using anti-rat FcRn mouse antibody, the anti-mouse IgG goat antibody (Invitrogen, cat#. A11001) was incubated with the cells on ice for 1 hour, and then the cells were recovered by centrifugation at 4° C. and 4000 rpm for 5 minutes, washed once with binding buffer, resuspended in 400 μl of binding buffer and analyzed by FACS to examine the cross-reactivity of the HL161 antibodies with rat FcRn (see FIG. 4). An experiment at a pH of 7.4 was performed using binding buffer at a pH of 7.4 in the same manner as the experiment using binding buffer at a pH of 6.0. The degree of the binding of each antibody to rat FcRn was presented as relative MFI based on human IgG.

[2] = target: T1, human FcRn on HEK293 cells; test: FACS on hFcRn-overexpressing HEK293 cells at pH 6.0, Alexa488 anti-human goat antibody; MFI relative to hIgG1
Experimental: as §1

[3] = target: T1, human FcRn on HEK293 cells; test: FACS competition on hFcRn HEK293 cells at pH 6.0; remaining binding of 100 nM Alexa488-labeled hIgG1 (m14) with 500 nM competitor antibody, percent of the tube without competitor
Experimental: In stable HEK293 cells expressing human FcRn, the blocking of the antibody against FcRn was analyzed by FACS. The antibody was diluted in binding buffer (PBS pH 6.0, 10 mM EDTA) at concentrations of 2,000 nM, […] to make 50 μl of dilutions, which were dispensed into tubes. […] Stable HEK293 cells were diluted in binding buffer at a concentration of 2,500,000 cells/ml, and 40 μl of the cell dilution was added to each of the labeled antibody-containing tubes. Thus, a final volume of 100 μl contained 100,000 cells, 100 nM labeled antibody and 1000 nM, 500 nM or 250 nM competitor antibody. The cells were washed once with 150 μl of buffer (pH 6.0), and pellets were obtained therefrom and resuspended in 150 μl of buffer having pH difference. The suspension was transferred into a tube for FACS analysis. The cells were analyzed by FACS using BD FACSDiva™ v6.1.3 software (BD Bioscience). The results of the analysis were expressed as mean fluorescence intensity (MFI).
The MFI of the test group was processed after subtracting the MFI (background signal) measured in cells alone.

Relative MFI (Fold) [1]: 10.6 fold | binding result (rat FcRn on Rat-2 cells): no binding | Relative MFI (Fold) [2]: 3.5 fold | Relative MFI(%) at 500nM [3]: 60.4%
B1: HL161-11H (antibody, V domains shown)
VH: QMQLVESGGGLVQPGRSLRLSCAASGFTFSSYAMHWVRQAPGKGLEWVAVISYDGSNKYYADSVKGRFTISRDNSKNTLYLQMNSLRSEDTAVYYCSRGSGGRDAFDVWGQGTMITVSS
VL: DIQMTQSPSTLSASVGDRVTITCRASQSISSRLAWYQQKPGKAPKLLIYKASSLETGVPSRFSGSGSGTEFTLTISSLQPDDFATYYCQQTNSFPLTFGGGTKVEIK
notes: Whole human IgG from pNATAB vectors
